Article PMC3776556, “Crystal structures of the CPAP/STIL complex reveal its role in centriole assembly and human microcephaly” (eLife, 2013)

Legend:
[1] = test system: SAS-5 N-terminal domain (aa 1–202); experiment: Ni-NTA pull-down of 35S-labelled SAS-4 fragments by SAS-5; format: binding, C. elegans; conditions: 25 mM HEPES, 100 mM NaCl, pH 7.4, 4°C, 30 min; SAS-5-6xHis bait on Ni-NTA
Method: SAS-4 constructs were cloned into a pET21a vector for in vitro transcription/translation. Proteins were expressed using the T7 TNT Quick Coupled Transcription/Translation System (Promega, Fitchburg, WI) with ^35S-Met labelling.
SAS-5 fragments were cloned into a pRSET-A vector with a C-terminal 6xHis tag. Proteins were expressed in E. coli Rosetta2(DE3) cells and purified on Ni-NTA agarose (Qiagen) using standard protocols. For pull-down experiments, proteins were dialysed into 25 mM HEPES, 100 mM NaCl, 20 mM imidazole, 1 mM DTT, 10% sucrose, 0.02% Tween-20, pH 7.4.
SAS-5 fragments were pre-incubated with 20 μl Ni-NTA beads for 45 min at 4°C. 10 μl of the SAS-4 IVTT product was added to the beads with 190 μl buffer and incubated at 4°C for 30 min. The beads were washed with 3 × 200 μl buffer and resuspended in 100 μl SDS-PAGE sample buffer. Samples were run on 10% SDS-PAGE gels and either stained with Coomassie or dried and exposed to a phosphor screen overnight. Phosphor screens were analysed on a Personal Molecular Imager System (Bio-Rad, Hercules, CA).

[2] = test system: centrioles in human cells; conditions: ref Kitagawa et al., 2011a; cited from earlier work
Text: The structures we report here rev ...

human STIL = conditions: ref Tang et al., 2011; cited from earlier work
Text: Of particular interest in this regard is the putative centriolar CPAP–STIL complex, as mutations in both components result in MCPH ([Leal et al., 2003]; [Bond et al., 2005]; [Gul et al., 2006]; [Darvish et al., 2010]). CPAP and STIL are strictly required for centriole assembly: STIL at a very early stage ([Stevens et al., 2010b]; [Tang et al., 2011]; [Kitagawa et al., 2011a]; [Arquint et al., 2012]; [Vulprecht et al., 2012]) and CPAP slightly later ([Kirkham et al., 2003]; [Leidel and Gonczy, 2003]; [Basto et al., 2006]; [Kleylein-Sohn et al., 2007]; [Dobbelaere et al., 2008]; [Vulprecht et al ...

B1: full-length SAS-4: in vitro translated full-length C. elegans SAS-4, 35S-labelled (protein)
chain: MASDENIGADGEQKPSRPFLRKGQGTARFRMPRNNKTSAGAPPTSELSSASSPSINVPRFSLSNALPNSARTVDSGISNEDETRPPTTASLPMDQPSLSSSPENRLNPAPSVAEEHGHSGQHAEEEEDNDTDEVSAMPSFVPDEPSTLVNSDHELSDDALKYKNAAAEFKAFERRMDSMRSASTITTSLATPSSCAPSNSSEPPTRSTPIMNDLGVGPNNHNWPSSMQELSGISLETPQARPLGSNRINQLVRSEAQTGISLLQHHERPTVTAPLRRNDMMNSSRQNPQNGNVQDENRPEHVYDQPIHVPGSSLDRQKLEIEIRRHRNLNIQLRDTIAHLDYAEESVHTTKRQLEEKISEVNNFKKELIEEFKKCKKGVEEEFEKKFEKIKEDYDELYEKLKRDQRDLERDQKILKKGTGERNKEFTETIATLRDKLRASETKNAQYRQDIRVRDEKLKKKDEEIEKLQKDGNRLKSTLQTLEKRVKQLRTEKERDDKEKEMFAKVAMNRKTSNPVPPVLNQSVPISITSNGPSRHPSSSSLTTFRKPSTSNRERGVSWADEPNEQSLEAVPQEFLMMPVKEMPGKFGKCTIYRDSLGETSKVTDTIANGLLFEYSNGDLRWVNRQNAVNIYISAVDKTVRIDLPTYNISIIHTFQRQVEVLRPGNNITLISIKRREVRTDLIYQNGMYKTEIFNRDGRYVTKDFSNQEVSRKYNPGTHTYRDNQCRYVLVTDYNDFELVEPEFRLRWYQGDPTGLNNQYILKIIGRPECSEKTLRLEVNLSTCEGTLETAEMIGDKRRKTTLFQWKK
modifications: ^35S-Met labelling
interaction with SAS-5 in pull-down [1]: interacted specifically with the N-terminal domain (aa 1–202) of SAS-5

B2: E1235V: human CPAP with MCPH mutation E1235V (cited studies) (protein, UniProt Q9HC77 1-1338, looked up, variant E1235V)
Centrosomal P4.1-associated …: MFLMPTSSELNSGQNFLTQWMTNPSRAGVILNRGFPILEADKEKRAAVDISTSFPIKGTHFSDSFSFINEEDSLLEEQKLESNNPYKPQSDKSETHTAFPCIKKGPQVAACHSAPGHQEENKNDFIPDLASEFKEGAYKDPLFKKLEQLKEVQQKKQEQLKRQQLEQLQRLMEEQEKLLTMVSGQCTLPGLSLLPDDQSQKHRSPGNTTTGERATCCFPSYVYPDPTQEETYPSNILSHEQSNFCRTAHGDFVLTSKRASPNLFSEAQYQEAPVEKNNLKEENRNHPTGESILCWEKVTEQIQEANDKNLQKHDDSSEVANIEERPIKAAIGERKQTFEDYLEEQIQLEEQELKQKQLKEAEGPLPIKAKPKQPFLKRGEGLARFTNAKSKFQKGKESKLVTNQSTSEDQPLFKMDRQQLQRKTALKNKELCADNPILKKDSKARTKSGSVTLSQKPKMLKCSNRKSLSPSGLKIQTGKKCDGQFRDQIKFENKVTSNNKENVTECPKPCDTGCTGWNKTQGKDRLPLSTGPASRLAAKSPIRETMKESESSLDVSLQKKLETWEREKEKENLELDEFLFLEQAADEISFSSNSSFVLKILERDQQICKGHRMSSTPVKAVPQKTNPADPISHCNRSEDLDHTAREKESECEVAPKQLHSLSSADELREQPCKIRKAVQKSTSENQTEWNARDDEGVPNSDSSTDSEEQLDVTIKPSTEDRERGISSREDSPQVCDDKGPFKDTRTQEDKRRDVDLDLSDKDYSSDESIMESIKHKVSEPSRSSSLSLSKMDFDDERTWTDLEENLCNHDVVLGNESTYGTPQTCYPNNEIGILDKTIKRKIAPVKRGEDLSKSRRSRSPPTSELMMKFFPSLKPKPKSDSHLGNELKLNISQDQPPGDNARSQVLREKIIELETEIEKFKAENASLAKLRIERESALEKLRKEIADFEQQKAKELARIEEFKKEEMRKLQKERKVFEKYTTAARTFPDKKEREEIQTLKQQIADLREDLKRKETKWSSTHSRLRSQIQMLVRENTDLREEIKVMERFRLDAWKRAEAIESSLEVEKKDKLANTSVRFQNSQISSGTQVEKYKKNYLPMQGNPPRRSKSAPPRDLGNLDKGQAASPREPLEPLNFPDPEYKEEEEDQDIQGEISHPDGKVEKVYKNGCRVILFPNGTRKEVSADGKTITVTFFNGDVKQVMPDQRVIYYYAAAQTTHTTYPEGLEVLHFSSGQIVKHYPDGRKEITFPDQTVKNLFPDGQEESIFPDGTIVRVQRDGNKLIEFNNGQRELHTAQFKRREYPDGTVKTVYANGHQETKYRSGRIRVKDKEGNVLMDTEL
centriole duplication [2]: centriole duplication was compromised by both mutations
centriole overgrowth on overexpression [2]: able to promote centriole overgrowth to a greater extent than the WT protein
localisation of CPAP to the centriole [2]: did not effect the localisation of CPAP to the centriole
yeast-two-hybrid interaction with STIL (human STIL): appeared to weaken this yeast-two-hybrid interaction
